B1: NTD (30-kDa N-terminal proteolytic fragment of fibronectin) (domain or fragment)
chain: not shown
modifications: Limits not printed: conventional N-terminal 29-30 kDa fragment, mature residues 1-259 (1-5F1). N-terminal pyroglutamate, intradomain disulfides
B2: AF1 (rFnBPA(189–550)) (domain or fragment)
chain: AKVETGTDVTSKVTVEIGSIEGHNNTNKVEPHAGQRAVLKYKLKFENGLHQGDYFDFTLSNNVNTHGVSTARKVPEIKNGSVVMATGEVLEGGKIRYTFTNDIEDKVDVTAELEINLFIDPKTVQTNGNQTITSTLNEEQTSKELDVKYKDGIGNYYANLNGSIETFNKANNRFSHVAFIKPNNGKTTSVTVTGTLMKGSNQNGNQPKVRIFEYLGNNEDIAKSVYANTTDTSKFKEVTSNMSGNLNLQNNGSYSLNIENLDKTYVVHYDGEYLNGTDEVDFRTQMVGHPEQLYKYYYDRGYTLTWDNGLVLYSNKANGNEKNGPIIQNNKFEYKEDTIKETLTGQYDKNLVTTVEEEYDSS
notes: Cloned in pET-YSBLIC-3C; not shown: His6, N-terminal, cleaved
B3: FgD (monomeric ~85-kDa proteolytic fragment of Fg) (domain or fragment)
chain 1: DNTYNRVSEDLRSRIEVLKRKVIEKVQHIQLLQKNVRAQLVDMKRLEVDIDIKIRSCRGSCSRALAREVDLKDYEDQQKQLEQVIAKDLLPSR
chain 2: DNENVVNEYSSELEKHQLYIDETVNSNIPTNLRVLRSILENLRSKIQKLESDVSAQMEYCRTPCTVSCNIPVVSGKECEEIIRKGGETSEMYLIQPDSSVKPYRVYCDMNTENGGWTVIQNRQDGSVDFGRKWDPYKQGFGNVATNTDGKNYCGLPGEYWLGNDKISQLTRMGPTELLIEMEDWKGDKVKAHYGGFTVQNEANKYQISVNKYRGTAGNALMDGASQLMGENRTMTIHNGMFFSTYDRDNDGWLTSDPRKQCSKEDGGGWWYNRCHAANPNGRYYWGGQYTWDMAKHGTDDGVVWMNWKGSWYSMRKMSMKIRPFFPQQ
chain 3: AIQLTYNPDESSKPNMIDAATLKSRKMLEEIMKYEASILTHDSSIRYLQEIYNSNNQKIVNLKEKVAQLEAQCQEPCKDTVQIHDITGKDCQDIANKGAKQSGLYFIKPLKANQQFLVYCEIDGSGNGWTVFQKRLDGSVDFKKNWIQYKEGFGHLSPTGTTEFWLGNEKIHLISTQSAIPYALRVELEDWNGRTSTADYAMFKVGPEADKYRLTYAYFAGGDAGDAFDGFDFGDDPSDKFFTSHNGMQFSTWDNDNDKFEGNCAEQDGSGWWMNKCHAGHLNGVYYQGGTYSKASTPNGYDNGIIWATWKTRWYSMKKTTMKIIPFNRLTIGEGQQHHLGGAKQAGDV
modifications: Limits not printed: conventional plasmin fragment D1 (mature Aalpha 105-197, Bbeta 134-461, gamma 63-411), ends may be ragged; gammaA C-terminus (AGDV) used because the UniProt canonical entry is …
B4: FgγC (synthetic peptide, 17 C-terminal residues of the Fg γA chain) (peptide)
peptide: Ac-GEGQQHHLGGAKQAGDV-NH2
notes: Fibrinogen γA chain, human, the 17 C-terminal residues; also called Fg peptide; source: synthetic peptide (Severn Biotech Ltd.)

Common to all, as to settings: both partners purified
Experiment [1] has as its target B2. Nature of the experiment: SPR; AF1 immobilised by amine coupling, Fn (5.2–0.01 nM) or NTD as analyte; kinetic analysis, Langmuir 1:1 fit; 25 °C, HBS-P+. (In SPR one partner is held on a chip, and binding of the other changes the refractive index at the surface.)
Experiment [2] addresses B2. Nature of the experiment: ITC; MicroCal VP-ITC, PBS pH 7.4, 25 °C, single-site binding model; AF1 injected into NTD; AF1 with Fg.
The target of experiment [3] is Human plasma fibronectin (Fn) (human, Plasma form by convention: no EDB or EDA, disulfide-linked heterodimer of a V+ chain (V89 chosen) and a V0 chain; the real material is a splice mixture. N-terminal pyroglutamate, glycosylated). The experiment is described as follows: SPR; AF1 immobilised by amine coupling, Fn (5.2–0.01 nM) or NTD as analyte; kinetic analysis, Langmuir 1:1 fit; 25 °C, HBS-P+.

Experiment [4] concerns the target B1. Nature of the experiment: ITC; MicroCal VP-ITC, PBS pH 7.4, 25 °C, single-site binding model; AF1 injected into NTD; AF1 with Fg. On the technique in general: In ITC the heat of successive injections is recorded.
The target in experiment [5] is T1, Intact human plasma fibrinogen (Fg) (human, UniProt P02671-2 20-644; P02675 31-491; P02679-2 27-437).
T1 construct: Fibrinogen Aα chain, human, from plasma; Fibrinogen Bβ chain, human, from plasma; Fibrinogen γ chain, human, from plasma; 341 kDa dimer of heterotrimers Aα, Bβ, γ; source: bought: Calbiochem-Merck-Millipore (human plasma, product no. 341576); in human plasma for the pulldown; copies: 2 + 2 + 2
T1 sequence (looked up) 1: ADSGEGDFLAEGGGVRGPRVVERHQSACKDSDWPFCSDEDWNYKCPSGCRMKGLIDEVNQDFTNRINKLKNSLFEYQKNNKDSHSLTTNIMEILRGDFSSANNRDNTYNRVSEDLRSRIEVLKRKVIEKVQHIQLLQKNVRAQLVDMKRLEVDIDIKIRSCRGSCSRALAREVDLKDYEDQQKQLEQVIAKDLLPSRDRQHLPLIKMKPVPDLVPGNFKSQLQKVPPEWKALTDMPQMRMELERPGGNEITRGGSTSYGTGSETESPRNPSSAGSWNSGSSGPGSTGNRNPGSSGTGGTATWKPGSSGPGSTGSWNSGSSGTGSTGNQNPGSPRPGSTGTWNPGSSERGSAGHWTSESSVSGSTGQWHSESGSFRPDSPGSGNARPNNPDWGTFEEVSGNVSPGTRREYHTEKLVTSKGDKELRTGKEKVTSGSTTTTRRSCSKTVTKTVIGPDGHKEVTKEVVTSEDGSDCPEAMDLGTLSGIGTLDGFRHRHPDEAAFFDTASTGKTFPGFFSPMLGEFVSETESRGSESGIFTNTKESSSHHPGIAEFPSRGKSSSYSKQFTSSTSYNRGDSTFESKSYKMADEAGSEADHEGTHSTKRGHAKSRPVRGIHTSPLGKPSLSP
T1 sequence (looked up) 2: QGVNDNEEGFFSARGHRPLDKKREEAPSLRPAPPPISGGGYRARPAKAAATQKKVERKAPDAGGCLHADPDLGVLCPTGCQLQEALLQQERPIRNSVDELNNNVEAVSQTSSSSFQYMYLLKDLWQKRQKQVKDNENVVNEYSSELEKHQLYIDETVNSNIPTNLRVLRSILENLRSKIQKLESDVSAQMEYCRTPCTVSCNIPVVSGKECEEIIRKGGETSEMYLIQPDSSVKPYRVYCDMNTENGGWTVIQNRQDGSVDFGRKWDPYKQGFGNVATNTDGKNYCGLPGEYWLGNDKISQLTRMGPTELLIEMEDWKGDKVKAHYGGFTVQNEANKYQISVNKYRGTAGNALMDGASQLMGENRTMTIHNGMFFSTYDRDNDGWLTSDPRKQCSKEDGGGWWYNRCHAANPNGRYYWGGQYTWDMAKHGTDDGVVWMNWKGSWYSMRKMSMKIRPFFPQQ
T1 sequence (looked up) 3: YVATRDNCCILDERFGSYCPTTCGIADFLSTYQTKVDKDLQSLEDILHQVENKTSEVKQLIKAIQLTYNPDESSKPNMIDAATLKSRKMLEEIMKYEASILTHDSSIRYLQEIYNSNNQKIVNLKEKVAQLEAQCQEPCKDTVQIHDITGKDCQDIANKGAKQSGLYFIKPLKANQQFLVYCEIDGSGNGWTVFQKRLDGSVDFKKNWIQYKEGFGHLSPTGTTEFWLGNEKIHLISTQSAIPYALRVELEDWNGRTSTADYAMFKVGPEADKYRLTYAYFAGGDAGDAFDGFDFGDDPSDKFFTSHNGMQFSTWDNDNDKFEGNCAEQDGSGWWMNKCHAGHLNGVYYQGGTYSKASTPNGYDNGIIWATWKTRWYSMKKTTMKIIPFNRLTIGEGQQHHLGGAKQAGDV
Described as above.

Experiment [6] has as its target T2, rFnBPA(189–511) (S. aureus 8325-4, UniProt P14738 189-511).
T2 construct: Cloned in pET-YSBLIC-3C; also called N2N3 domains including the latch strand; not shown: His6, N-terminal, cleaved
T2 sequence: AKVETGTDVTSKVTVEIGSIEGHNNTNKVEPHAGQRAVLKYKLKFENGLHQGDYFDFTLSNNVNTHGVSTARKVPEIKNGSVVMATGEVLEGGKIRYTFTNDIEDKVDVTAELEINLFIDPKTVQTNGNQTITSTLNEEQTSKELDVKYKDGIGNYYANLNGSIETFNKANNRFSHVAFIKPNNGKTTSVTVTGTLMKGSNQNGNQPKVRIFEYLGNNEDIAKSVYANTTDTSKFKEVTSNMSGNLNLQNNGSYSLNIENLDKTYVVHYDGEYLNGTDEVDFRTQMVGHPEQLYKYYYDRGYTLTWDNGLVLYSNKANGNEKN
The experiment is described as follows: SPR; FgD immobilised by amine coupling, rFnBPA constructs as analytes in 2-fold dilutions; equilibrium (steady-state) analysis; 25 °C, HBS-P+ (10 mM HEPES pH 7.4, 150 mM NaCl, 0.05% polysorbate 20).

Experiment [7] deals with T3, rFnBPA(189–505) (S. aureus 8325-4, UniProt P14738 189-505).
T3 construct: Cloned in pET-YSBLIC-3C; also called N2N3 (without latch); not shown: His6, N-terminal, cleaved
T3 sequence: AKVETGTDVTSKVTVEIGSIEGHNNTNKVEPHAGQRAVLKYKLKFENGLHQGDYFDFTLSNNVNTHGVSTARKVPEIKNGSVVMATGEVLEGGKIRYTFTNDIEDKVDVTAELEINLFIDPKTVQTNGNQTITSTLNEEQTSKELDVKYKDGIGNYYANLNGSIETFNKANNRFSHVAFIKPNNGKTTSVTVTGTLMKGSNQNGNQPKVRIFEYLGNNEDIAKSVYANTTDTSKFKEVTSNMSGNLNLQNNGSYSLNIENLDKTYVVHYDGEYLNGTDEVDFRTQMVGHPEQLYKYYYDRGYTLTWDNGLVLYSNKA
The description is as above.

The target in experiment [8] is B2. The experiment is described as above.
Experiment [9] concerns the target B2. Nature of the experiment: SPR; NTD immobilised on a C1 chip; 0.5 μM AF1 + 0.5 μM Fg injected together, without or with 50 μM FgγC; 25 °C, HBS-P+.
Experiment [10] addresses T3, rFnBPA(189–505). The experiment is described as follows: crystal structure; rFnBPA(189–505) 25 mg/ml with a 20-fold molar excess of FgγC; 1.83 Å.

In general, Kd refers to the equilibrium constant for the complex coming apart. Take B1: the results for the Kd in experiment [1] and in experiment [2] were 0.000393 µM and 0.0007 µM, respectively.

Broadly, the stoichiometry N is a count of units in the complex or per binding partner. Consider B2, for which the Kd in experiment [3] is 0.000359 µM. Further, in experiment [4], the dH was -35.8 kcal/mol and the “stoichiometry N” value was determined as 0.89. In experiment [5], binding was characterised by a dissociation constant (Kd) of 1.1 µM, the dH was -6.1 kcal/mol and the “stoichiometry N” value was determined as 2.11.

As to B3, the Kd came out at 1.5 µM in experiment [6], 3.7 µM in [7] and 1.5 µM in [8].

In the case of B4, the binding result in experiment [9] and in [10] was “binds” throughout.

For the origin of these results see paper PMC4007472, “Evidence for Steric Regulation of Fibrinogen Binding to Staphylococcus aureus Fibronectin-binding Protein A (FnBPA)*” (The Journal of Biological Chemistry, 2014).
